From patent US20220267427A1 come the findings set out here.

In assay [1] the target is fCK18 in apoptosis-induced HepG2 cell culture supernatant (human) (UniProt P05783). Description: commercial fCK18 kit ELISA with M30 conjugate; fCK18 2.23 ng/mL.
For assay [2] the target is unchanged. Description: commercial fCK18 kit ELISA with M30 conjugate; fCK18 6.79 ng/mL.
Assay [3] has the same target. Description: commercial fCK18 kit ELISA with M30 conjugate; fCK18 0.09 ng/mL. (In general: ELISA stands for enzyme-linked immunosorbent assay.)
Assay [4] has the same target. Description: commercial fCK18 kit ELISA with M30 conjugate; fCK18 20.27 ng/mL.
The target is the same in assay [5]. Description: commercial fCK18 kit ELISA with M30 conjugate; fCK18 0.74 ng/mL.
For assay [6] the target is unchanged. Description: commercial fCK18 kit ELISA with M30 conjugate; fCK18 0.28 ng/mL.
For assay [7] the target is unchanged. Description: commercial fCK18 kit ELISA with M30 conjugate; fCK18 182.28 ng/mL.
Assay [8] shares this target. Description: commercial fCK18 kit ELISA with M30 conjugate; fCK18 60.73 ng/mL.
Assay [9] has the same target. Description: commercial fCK18 kit ELISA with M30 conjugate.

Where only a bound is given, the exact number is not on record here.

fCK18 in apoptosis-induced HepG2 cell culture supernatant (human), sequence (P05783 239-397): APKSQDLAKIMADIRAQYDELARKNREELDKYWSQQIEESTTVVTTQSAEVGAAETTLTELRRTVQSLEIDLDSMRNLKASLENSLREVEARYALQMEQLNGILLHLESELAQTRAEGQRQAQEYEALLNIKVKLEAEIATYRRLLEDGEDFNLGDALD

Take M30 antibody: the S/N ratio in assay [1] is 2.4; in [2], 5.1; in assay [3], 1.1; in assay [4], 12.8; in assay [5], 1.5; in assay [6], 1.2. Moreover, the S/N ratio in assay [7] was found to be 48.3; in [8], 37.5. Besides, the fCK18 concentration detectable (S/N ratio of 2 or more) in assay [9] is more than 2.23 ng/mL.
